B1: ANKRD17 (parent)
chain: EMVRFLLEAGADQEHKTDEMHTAL
B2: VAMP4 (parent)
chain: IMALVAAILLLVIIILIVMKYRT

Variants of: B1
Assay: protein stability index of a GFP-peptide fusion (GPS, HEK-293T) (PSI 1-6); higher = more stable
Settings: c terminus: a fixed tail appended
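Note: lentivirally expressed fusions sorted by FACS into six bins by GFP to DsRed ratio, PSI derived from sequencing read proportions per bin multiplied by bin number.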

Protein stability index of substitutions, site by site:
H21: R 3.36, P 2.54
E1: Q 2.9, H 2.75, C 2.48, P 4.17, N 3.37, F 2.56, R 2.81, I 1.74
M20: Y 2.45, D 3.56, K 2.94, W 2.82, N 3.59, T 3.15, F 2.75, L 3.13
F5: V 3.7, L 2.56, Q 4.22, G 4.11
A23: R 2.96, G 2.72, Y 3.03, H 2.69, Q 3.69, D 3.06, L 2.43, V 2.6, K 2.76
L7: W 3.26, G 4.76, V 3.64, K 3.7, S 3.95, T 3.99, N 3.72, R 4.13
D18: H 2.01, G 2.26, L 1.7, V 1.6
G10: P 3.73, S 2.03, V 2.07, I 1.98, C 2.13, R 1.67, Y 1.72
A11: L 2.04, N 3.29, R 3.02, K 2.64, F 1.83
E19: T 2.53, V 1.79, M 2.01, D 2.28, L 2.29
A9: K 3.05, C 2.62, V 2.29, L 2.59, T 3.04, R 2.03, H 2.58
K16: G 2.56, V 3.18, Y 2.22, M 3.06, L 3.11
T22: H 2.39, M 2.15, F 1.97, W 1.91, P 2.86
D12: H 1.94, M 2.07, V 2.05, A 2.38
V3: H 4.55, K 4.2, M 2.87, S 4.82, I 3.11, N 4.47, E 5.24
H15: W 1.72, S 2.79, Y 1.97, K 2.92, E 3.04, T 3.02
L24: V 2.62, T 3.05, E 3.79, Y 2.95, A 2.75, G 3
R4: H 3.2, A 2.99, E 3.47, V 2.65, S 3.64, M 2.46, W 2.08
T17: H 2.55
Q13: V 2.69, T 3.83, A 2.65, G 2.78, K 2.92, H 2.46, R 2.22, P 2.67
M2: C 3.4, W 2.5, F 1.97, D 5.29, I 1.93, R 4.21
E8: I 2.07, A 2.15, W 1.19, S 2.62
L6: N 4.55, Q 4.75, W 3.25, P 5.04, S 4.69, A 4.45
E14: T 2.04, D 2.61, M 2.72, G 2.63, C 1.5

Variants of: B2
Assay: as above
Settings: c terminus: native

Protein stability index of substitutions, site by site:
A6: V 3.23, Q 2.37, H 2.06, P 2.54, W 2.02, R 2.47, C 3.2, L 3.39, S 3.71, D 2.8, Y 2.06, M 3.34, G 3.2, K 2.68, N 2.1, I 3.61, E 2.3, F 3.75, T 3.43
I1: E 2.77, G 3.11, W 3.51, K 3.29, L 3.49, D 2.5, H 3.39, C 3.16, P 3.56, M 3.56, Y 3.52, Q 3.45, N 2.69, A 3.25, S 3.02, F 3.39, T 3.53, R 3.06, V 3.38
M2: Y 3.22, Q 2.96, R 3.53, P 3.28, I 3.15, V 2.72, H 2.4, A 2.73, G 2.98, K 2.98, D 2.98, W 3.66, F 3.53, S 3.18, E 2.4, N 1.93, C 3.25, T 2.81, L 3.03
L9: T 3.08, W 2.76, A 2.92, K 2.5, P 2.43, G 3.48, Y 2.12, F 3.56, N 2.4, E 1.96, R 1.95, M 3.74, I 3.36, H 2.52, S 3.05, V 3.3, C 3.33, D 2.68, Q 2.29
L11: H 2.71, F 3.58, D 2.28, G 3.71, C 3.27, A 3.51, E 2.27
A7: R 3.36, Y 2.94, F 3.74, I 3.42, W 3.03, Q 1.91, E 1.62, K 3.15, M 3.09, P 2.75, N 2.02, S 3.81, H 1.84, D 2.37, C 3.29, L 3.58, G 3.51, T 3.4, V 3.45
L4: N 1.79, C 3.07, G 3.32, F 3.69, W 3.59, Q 2.19, V 3.14, A 3.08, M 3.29, P 2.83, Y 2.76, T 3.19, R 3.42, E 1.57, I 3.33, S 3.29, K 2.78, D 2.9, H 2.36
A3: Y 3.55, G 3.17, V 3.59, W 3.47, N 2.46, L 3.65, D 1.33, M 3.72, H 2.85, E 2.2, C 3.34, K 3.28, Q 3.28, F 3.55, I 3.5, S 2.86, P 2.9, T 3.17, R 3.58
I8: Q 2.01, F 3.4, T 3.25, D 3.13, G 3.37, W 2.47, P 2.85, E 2.68, A 3.34, S 3.25, C 3.01, L 3.28, N 2.48, R 2.72, M 3.69, Y 2.26, V 3.04, K 2.72, H 2.14
V5: R 2.73, M 3.81, Q 1.83, P 2.36, C 3.37, E 2.42, G 3.37, K 2.1, F 3.17, A 3.36, W 3.4, D 2.77, L 3.23, H 2.13, Y 3.72, T 3.31, I 2.97, S 2.96, N 1.84
L10: W 2.78, D 3.06, C 2.84, R 3.16, P 1.95, S 2.86, I 3.35, K 1.97, E 1.79, Y 2.03, G 2.73, V 3.53, H 2.46, M 3.35, F 3.43, T 2.87, Q 2.67, A 2.87, N 2.48

Source: the supplement of paper PMC10567573
